From patent publication US20100297149A1 (ATYR PHARMA, published 2010)

Target: T1, human CCR1-EGFP expressed on HEK293T cells (human, UniProt P32246 1-355)
T1 construct: whole, on cells; Transiently transfected HEK293T cells; the fusion localized to the cell membrane; also called CCR1-expressing cells; not shown: EGFP from the pEGFP-N1 vector
T1 sequence (looked up): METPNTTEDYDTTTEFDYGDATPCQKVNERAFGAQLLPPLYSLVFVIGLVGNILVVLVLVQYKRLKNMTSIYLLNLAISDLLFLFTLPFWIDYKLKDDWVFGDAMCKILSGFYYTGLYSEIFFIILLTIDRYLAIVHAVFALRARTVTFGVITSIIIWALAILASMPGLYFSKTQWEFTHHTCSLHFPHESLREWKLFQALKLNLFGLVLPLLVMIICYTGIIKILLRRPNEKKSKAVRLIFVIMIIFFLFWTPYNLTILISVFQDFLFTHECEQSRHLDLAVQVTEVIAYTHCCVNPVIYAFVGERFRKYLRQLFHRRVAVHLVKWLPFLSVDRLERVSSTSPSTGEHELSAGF
Assay: flow cytometry (FACS) on CCR1-EGFP-transfected HEK293T cells, detection with FITC anti-tag antibody
Protocol: Human CCR5 was amplified and cloned into to pEGFP-N1 vector. Human CCR1 receptor, also a CC chemokine receptor, was included as a control. HEK293T cells were transfected with CCR5-EGFP or CCR1-EGFP plasmids and 1d after transfection, cells were washed with PBS and detached from culture dish by trypsin. 1×10″6 cells were put into FACS tube in 100 μl complete media and kept on ice (cells were kept cold for remainder of the assay). Cells were treated with recombinant HRS-SV11 protein for 45′. Then cells were washed once with 1 ml staining buffer (1×PBS+3% FBS) and spin down at 4° C., 400×g for 10′. After wash, cells were incubated with 0.3 μl primary anti-V5-FITC antibody (3 μg/ml) in 100 μl staining buffer for 30′ in dark (kept in dark for remainder of the assay). Cells were then washed twice with 1 ml staining buffer, 4° C., 400×g for 10′ and spun down. After the final wash, cell pellets were resuspended in 800 μl staining buffer and analyzed immediately by FACS.

binding result: no binding
B1: recombinant HRS-SV11 splice variant polypeptide of human histidyl-tRNA synthetase with C-terminal polyhistidine tag (6xHis) (ligand)
chain: MAERAALEELVKLQGERVRGLKQQKASAELIEEEVAKLLKLKAQLGPDESKQKFVLKTPKALEEKIRTTETQVLVASAQKKLLEERLKLVSELWDAGIKAELLYKKNPKLLNQLQYCEEAGIPLVAIIGEQELKDGVIKLRSVTSREEVDVRREDLVEEIKRRTGQPLCICHHHHHH
notes: Expressed in E. coli from pET20b (EcoRV/NotI, no stop codon) and purified on Ni-NTA; By gel filtration it switches between monomer and dimer; also called wild type HRS-SV11
